Experimental findings from PMC11319201 (2024) are described below.

Experiment [1] deals with STAG2^R370Q–RAD21 complex (human | , UniProt Q8N3U4 1-1231; O60216 1-631, R370Q). The experiment can be described thus: ITC. (In general: Isothermal titration calorimetry measures the heat released or taken up as one component is titrated into another.)
The target in experiment [2] is T1, STAG2–RAD21 complex (wild type) (human | , UniProt Q8N3U4 1-1231; O60216 1-631).
T1 chain 1: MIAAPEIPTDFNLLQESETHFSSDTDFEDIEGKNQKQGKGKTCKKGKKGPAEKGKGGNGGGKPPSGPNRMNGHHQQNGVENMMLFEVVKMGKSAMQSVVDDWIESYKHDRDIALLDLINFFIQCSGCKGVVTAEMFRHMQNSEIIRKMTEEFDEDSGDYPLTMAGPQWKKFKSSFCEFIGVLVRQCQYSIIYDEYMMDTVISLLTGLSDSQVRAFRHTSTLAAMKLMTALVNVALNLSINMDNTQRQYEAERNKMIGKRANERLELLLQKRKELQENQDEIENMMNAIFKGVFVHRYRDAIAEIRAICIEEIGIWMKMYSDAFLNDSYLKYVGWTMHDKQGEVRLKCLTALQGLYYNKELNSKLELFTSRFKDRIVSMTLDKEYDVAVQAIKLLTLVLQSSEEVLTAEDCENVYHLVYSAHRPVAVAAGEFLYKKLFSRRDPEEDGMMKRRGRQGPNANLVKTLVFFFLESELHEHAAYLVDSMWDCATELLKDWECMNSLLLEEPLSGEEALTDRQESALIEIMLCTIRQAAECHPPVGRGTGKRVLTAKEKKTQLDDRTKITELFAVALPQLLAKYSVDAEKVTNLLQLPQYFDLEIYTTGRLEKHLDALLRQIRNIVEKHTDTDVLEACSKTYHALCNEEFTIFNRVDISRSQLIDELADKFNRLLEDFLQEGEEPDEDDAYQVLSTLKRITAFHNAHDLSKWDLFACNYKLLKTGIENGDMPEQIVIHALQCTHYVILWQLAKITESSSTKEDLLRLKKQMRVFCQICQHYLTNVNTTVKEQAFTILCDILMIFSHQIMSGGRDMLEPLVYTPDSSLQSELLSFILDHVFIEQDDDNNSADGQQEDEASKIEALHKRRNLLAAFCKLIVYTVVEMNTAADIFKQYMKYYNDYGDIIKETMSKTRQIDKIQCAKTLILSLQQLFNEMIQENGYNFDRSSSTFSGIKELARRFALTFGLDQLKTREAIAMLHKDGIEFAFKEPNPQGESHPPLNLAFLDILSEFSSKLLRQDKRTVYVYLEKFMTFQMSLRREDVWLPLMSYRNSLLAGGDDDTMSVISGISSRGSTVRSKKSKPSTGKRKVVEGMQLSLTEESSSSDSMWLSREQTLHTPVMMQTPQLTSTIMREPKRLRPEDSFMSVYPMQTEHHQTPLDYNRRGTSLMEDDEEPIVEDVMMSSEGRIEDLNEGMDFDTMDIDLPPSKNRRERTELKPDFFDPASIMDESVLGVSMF
T1 chain 2: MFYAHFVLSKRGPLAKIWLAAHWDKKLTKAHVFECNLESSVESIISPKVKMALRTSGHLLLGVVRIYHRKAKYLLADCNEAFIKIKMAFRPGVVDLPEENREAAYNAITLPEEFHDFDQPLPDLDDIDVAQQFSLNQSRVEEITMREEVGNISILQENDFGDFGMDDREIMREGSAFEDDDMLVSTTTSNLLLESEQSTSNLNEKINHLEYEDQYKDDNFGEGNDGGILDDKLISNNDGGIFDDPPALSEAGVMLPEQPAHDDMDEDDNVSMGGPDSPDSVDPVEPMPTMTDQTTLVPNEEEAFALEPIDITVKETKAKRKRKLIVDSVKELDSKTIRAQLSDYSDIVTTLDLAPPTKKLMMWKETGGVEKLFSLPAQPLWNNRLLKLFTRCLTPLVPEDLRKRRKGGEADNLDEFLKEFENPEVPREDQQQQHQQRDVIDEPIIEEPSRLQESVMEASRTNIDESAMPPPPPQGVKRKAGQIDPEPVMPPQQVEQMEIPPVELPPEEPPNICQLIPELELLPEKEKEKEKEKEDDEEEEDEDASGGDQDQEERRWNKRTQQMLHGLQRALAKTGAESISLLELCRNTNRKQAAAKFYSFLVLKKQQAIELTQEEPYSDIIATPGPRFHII
The experiment can be described thus: ITC.

Chain of STAG2^R370Q–RAD21 complex (Q8N3U4 whole entry R370Q, chain 1 of 2, one chain of several): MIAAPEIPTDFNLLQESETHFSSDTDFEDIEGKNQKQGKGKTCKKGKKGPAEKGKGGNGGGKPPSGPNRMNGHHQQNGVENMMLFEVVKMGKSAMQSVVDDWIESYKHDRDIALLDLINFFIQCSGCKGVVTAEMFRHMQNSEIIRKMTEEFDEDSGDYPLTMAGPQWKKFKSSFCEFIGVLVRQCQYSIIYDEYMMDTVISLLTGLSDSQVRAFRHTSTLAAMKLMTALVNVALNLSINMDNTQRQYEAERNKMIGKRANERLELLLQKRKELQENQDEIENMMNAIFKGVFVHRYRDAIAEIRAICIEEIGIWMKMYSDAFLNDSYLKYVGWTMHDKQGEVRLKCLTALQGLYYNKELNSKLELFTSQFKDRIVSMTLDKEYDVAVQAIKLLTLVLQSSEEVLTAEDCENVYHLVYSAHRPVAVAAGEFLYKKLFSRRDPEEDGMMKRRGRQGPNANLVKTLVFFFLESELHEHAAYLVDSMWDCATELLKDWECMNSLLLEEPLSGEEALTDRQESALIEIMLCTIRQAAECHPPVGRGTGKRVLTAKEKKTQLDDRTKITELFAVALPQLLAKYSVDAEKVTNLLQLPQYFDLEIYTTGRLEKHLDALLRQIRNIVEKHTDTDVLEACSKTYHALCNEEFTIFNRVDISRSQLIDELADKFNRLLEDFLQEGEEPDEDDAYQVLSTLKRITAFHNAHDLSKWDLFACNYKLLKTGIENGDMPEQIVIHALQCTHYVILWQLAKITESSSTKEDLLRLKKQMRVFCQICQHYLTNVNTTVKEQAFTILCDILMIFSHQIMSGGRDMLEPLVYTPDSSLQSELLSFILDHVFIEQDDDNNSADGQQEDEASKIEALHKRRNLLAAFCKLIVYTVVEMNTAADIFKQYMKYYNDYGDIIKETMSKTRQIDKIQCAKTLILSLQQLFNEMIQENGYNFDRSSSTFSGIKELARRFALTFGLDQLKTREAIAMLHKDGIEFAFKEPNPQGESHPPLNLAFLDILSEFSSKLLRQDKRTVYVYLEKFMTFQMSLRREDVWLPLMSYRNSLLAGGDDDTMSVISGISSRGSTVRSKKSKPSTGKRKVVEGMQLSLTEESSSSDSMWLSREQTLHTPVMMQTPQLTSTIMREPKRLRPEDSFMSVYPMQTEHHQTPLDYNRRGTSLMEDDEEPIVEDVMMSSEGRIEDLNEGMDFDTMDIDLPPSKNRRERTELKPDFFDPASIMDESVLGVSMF

The Kd is the free concentration of one partner at which half of the binding sites on the other are occupied at equilibrium, for simple one-to-one binding. Read a high Kd as weaker binding. Consider DVSVYDFEEE [CTCF peptide], for which the Kd in experiment [1] came out at 21.7 µM; in experiment [2], 1.92 µM.
